Test results published in patent US20220332804A1 (CSL INNOVATION, published 2022).
Residue numbers refer to the chain shown, from its start.

Tests used:
Assay in all cases: SPR, antibody captured, C2 as analyte;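 further: biacore SPR at 37 °C, anti-C2 mAbs captured via goat anti-human IgG on CM5 chips, double-referenced sensorgrams fit to a 1:1 kinetic or steady-state model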
human C2 F689A = molecular target: T1, human C2 F689A (human, UniProt P06681 21-752)
T1 sequence: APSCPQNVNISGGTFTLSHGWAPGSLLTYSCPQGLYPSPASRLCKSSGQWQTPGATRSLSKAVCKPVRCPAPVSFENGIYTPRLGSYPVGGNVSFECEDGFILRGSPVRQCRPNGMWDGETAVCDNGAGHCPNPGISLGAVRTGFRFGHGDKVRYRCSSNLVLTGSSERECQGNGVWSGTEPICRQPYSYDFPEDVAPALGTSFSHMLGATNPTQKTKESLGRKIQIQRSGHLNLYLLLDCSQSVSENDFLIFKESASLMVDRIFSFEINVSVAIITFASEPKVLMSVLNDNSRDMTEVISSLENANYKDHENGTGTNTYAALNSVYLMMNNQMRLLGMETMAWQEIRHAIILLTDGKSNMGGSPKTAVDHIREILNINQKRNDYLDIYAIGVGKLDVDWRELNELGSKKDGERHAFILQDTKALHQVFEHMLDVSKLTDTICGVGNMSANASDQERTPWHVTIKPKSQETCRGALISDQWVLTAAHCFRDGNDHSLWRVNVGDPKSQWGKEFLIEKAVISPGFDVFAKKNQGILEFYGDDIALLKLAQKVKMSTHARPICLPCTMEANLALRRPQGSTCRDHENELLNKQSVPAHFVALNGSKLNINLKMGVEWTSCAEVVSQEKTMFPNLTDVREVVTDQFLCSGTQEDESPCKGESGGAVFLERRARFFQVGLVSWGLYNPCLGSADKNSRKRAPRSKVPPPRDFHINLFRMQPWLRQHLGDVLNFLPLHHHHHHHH

human C2 E490A = molecular target: T2, human C2 E490A (human, UniProt P06681 21-752)
T2 sequence: T1 sequence with E470A, A669F

human C2 T317A = molecular target: T3, human C2 T317A (human, UniProt P06681 21-752)
T3 sequence: T1 sequence with T297A, A669F

human C2 L279A = molecular target: T4, human C2 L279A (human, UniProt P06681 21-752)
T4 sequence: T1 sequence with L259A, A669F

B1: RF16-226 (antibody, human IgG4 S228P, lambda)
heavy: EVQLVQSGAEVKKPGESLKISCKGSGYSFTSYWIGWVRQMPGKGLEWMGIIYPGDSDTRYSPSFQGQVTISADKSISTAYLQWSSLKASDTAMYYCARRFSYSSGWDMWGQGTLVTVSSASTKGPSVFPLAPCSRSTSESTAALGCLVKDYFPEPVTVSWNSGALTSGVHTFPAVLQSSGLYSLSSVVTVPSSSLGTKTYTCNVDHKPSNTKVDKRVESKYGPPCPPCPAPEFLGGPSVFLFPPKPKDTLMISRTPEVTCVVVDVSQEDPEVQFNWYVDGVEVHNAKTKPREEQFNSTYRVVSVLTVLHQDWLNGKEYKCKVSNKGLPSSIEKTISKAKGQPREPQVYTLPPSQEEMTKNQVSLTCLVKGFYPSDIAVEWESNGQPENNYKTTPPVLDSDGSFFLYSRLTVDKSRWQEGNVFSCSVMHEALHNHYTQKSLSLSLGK
light: SYELTQPPSVSVSPGQTARITCSGDALTSKYVAWYQQKSGLAPLLVIYEDTRRPSGIPAKFSGSSSGSVATLTISGAHGDDEADYYCYSTDASGHQRVFGGGTKLTVLSQPKAAPSVTLFPPSSEELQANKATLVCLISDFYPGAVTVAWKADGSPVKAGVETTKPSKQSNNKYAASSYLSLTPEQWKSHRSYSCQVTHEGSTVEKTVAPTECS
notes: pH-dependent anti-C2 antibody from a phage display library; also called WT
Work on B1 yielded a Kd (human C2 F689A) of 9.3 nM, a Kd (human C2 E490A) of 15.6 nM and a Kd (human C2 T317A) of 9 nM. It also gave a Kd (human C2 L279A) of 54.4 nM.
